The record followed here is PMC8563793, “C-Glycoside metabolism in the gut and in nature: Identification, characterization, structural analyses and distribution of C-C bond-cleaving enzymes” (Nature Communications, 2021).

The target of one series is EuCGD (DfgA-B complex) ([Eubacterium] cellulosolvens, UniProt I5AX49+I5AX50). Kind of series: steady-state kinetics, HPLC of aglycone. To be noted: 30 °C, 2 min, 2 μM enzyme; enzymatically prepared substrate.
Substrate in series [1]: O=C1[C@@H](O)[C@H](c2c(O)cc(O)c3c(=O)cc(-c4ccc(O)c(O)c4)oc23)O[C@H](CO)[C@H]1O
In words: purified protein. The following applies: 30 °C, 30 min, 2 μM enzyme, enzymatically prepared substrate.

Substrate in series [2]: O=C1[C@@H](O)[C@H](c2c(O)cc3oc(-c4ccc(O)c(O)c4)cc(=O)c3c2O)O[C@H](CO)[C@H]1O
Kind of series: purified protein. The following applies: 30 °C, 2 μM enzyme, enzymatically prepared substrate.

Substrate in series [3]: O=C1[C@@H](O)[C@H](c2c(O)cc3oc(-c4ccc(O)cc4)cc(=O)c3c2O)O[C@H](CO)[C@H]1O
In words: purified protein. To be noted: 30 °C, 2 μM enzyme, enzymatically prepared substrate.

Substrate in series [4]: O=C1[C@@H](O)[C@H](c2c(O)cc3oc4cc(O)c(O)cc4c(=O)c3c2O)O[C@H](CO)[C@H]1O
Kind of series: purified protein. To be noted: 30 °C, 30 min, 2 μM enzyme, enzymatically prepared substrate.

Substrate in series [5]: O=C1[C@@H](O)[C@H](c2c(O)cc(O)c3c(=O)cc(-c4ccc(O)c(O)c4)oc23)O[C@H](CO)[C@H]1O
In words: steady-state kinetics, HPLC of aglycone. Format: biochemical, human intestinal bacterium PUE. The following applies: 30 °C, 90 min, 5 μM enzyme, enzymatically prepared substrate.

Substrate in series [6]: O=C1[C@@H](O)[C@H](c2c(O)ccc3c(=O)c(-c4ccc(O)cc4)coc23)O[C@H](CO)[C@H]1O
Kind of series: steady-state kinetics, HPLC of aglycone. The following applies: 30 °C, 2 min, 2 μM enzyme, enzymatically prepared substrate. Format: biochemical, human intestinal bacterium PUE.

Substrate in series [7]: O=C1[C@@H](O)[C@H](c2c(O)cc3oc(-c4ccc(O)c(O)c4)cc(=O)c3c2O)O[C@H](CO)[C@H]1O
Kind of series: steady-state kinetics, HPLC of aglycone. Format: biochemical, Microbacterium trichothecenolyticum. The following applies: 30 °C, 30 min, 2 μM enzyme, enzymatically prepared substrate.

Substrate in series [8]: O=C1[C@@H](O)[C@H](c2c(O)cc3oc(-c4ccc(O)cc4)cc(=O)c3c2O)O[C@H](CO)[C@H]1O
In words: steady-state kinetics, HPLC of aglycone. Format: biochemical, Microbacterium trichothecenolyticum. The following applies: 30 °C, 30 min, 2 μM enzyme, enzymatically prepared substrate.

Substrate in series [9]: O=C1[C@@H](O)[C@H](c2c(O)cc3oc4cc(O)c(O)cc4c(=O)c3c2O)O[C@H](CO)[C@H]1O
Kind of series: steady-state kinetics, HPLC of aglycone. Format: biochemical, Microbacterium trichothecenolyticum. To be noted: 30 °C, 30 min, 2 μM enzyme, enzymatically prepared substrate.

Substrate in series [10]: Cc1c(C(=O)O)c(O)cc2c1C(=O)c1c(O)c([C@@H]3O[C@H](CO)[C@@H](O)C(=O)[C@H]3O)c(O)c(O)c1C2=O
Kind of series: purified protein. To be noted: 30 °C, 30 min, 2 μM enzyme, enzymatically prepared substrate.

With `O=C1[C@@H](O)[C@H](c2c(O)cc3oc4cc(O)c(O)cc4c(=O)c3c2O)O[C@H](CO)[C@H]1O` [compound 5, 3’-oxo-mangiferin], on EuCGD (DfgA-B complex), the Michaelis-Menten constant (Km) (commonly the concentration of substrate that gives half-maximal velocity) was over 5 mM.

B1: AgCGD2 (Arthrobacter globiformis NBRC 12137) (protein)
chain 1: MSEGIAGSGIELGITLYSLTSEFAAGLYTPETLIKAVADEGLGPGVEFNIAQMLRTYPDVDDDFVKLWRDSMDRYGLTPSAVGTNLDMGRRKDRDMTPDEEYDFFAAQLRTANKLGFHRVVIRSAGKELLRRLLPLAEKYDQKLGYEIHAPQGPNDPKILQIREMYAELGSDRLGFTADFSSTMHSLSPTLFRTLTQMGLPEEHFAVMQDIWRKPLPMQERNQEFEDYLRANNFDPAQLGPFTRLAFNMHGLVPPEEWLDIMPQIFHVHAKFYDIDENGNEPAMDIPRIVRQFVKGGYRGYLSSEWEGHAFADLGESDPIDLVKKQHSLMRRAIEEAVDPTVSQPALVETAK
chain 2: MATHNSLFQDSDVRKHPEGIAVSVQLPWYRSLWLSAVDDVAATVNGVKIPRESLRFELQGQTYSIAELPEQWETLWFVADKPDVVIPLDRIPDAGEEIDVEVILTLRLLYMQIAPMRYVGNRVAVERKVVLA
In the case of B1, the kcat – broadly, the maximal rate divided by the concentration of active sites – in “purified protein [1]” was determined as 0.667 ± 0.083 s⁻¹.

B2: EuCGD (DfgA-B complex) ([Eubacterium] cellulosolvens 6) (protein)
chain 1: MYRYEKKGPKRGVALYSYSAEFGLTKTLEDCFEDLHDMGAHGIEILANTHIENYPYPTDEWVEKWWRLCDKYEIVPVEYGNWIDSHVLGDRDLTTEESVEMLKRDIRLAHRLGFTVMRTKMPVINDLLEPVENWKEIIKGALPLAEELGIKMCPEIHTPSNLKGKLVNDFVEFIKETGTKNFGLNIDFSVFRTSFAEGEWVDPNYTPNKPEDIIPLLPYVYCCHAKFIHMSDDFKETTIPYEEVVKTMEDNGYEGYLLSEYEGADKYDEGYEVGQTLRKHHILLKNLLGD
chain 2: MEKQVIQSVGFRNIKNGNGEITGFQFKVKLPYYRGVFLSQIRPGTLFVDGQKIEKDQITWTINGEEYTNQEMRGDFKTHWATTKPAVLKVKMPGGLAQGYHDLKYGFCFTSSYMPPIIQDGLDPDKESMVYMPEFGHHVNERRLLIV
Consider B2, for which the results for the Michaelis constant (Km) in the series “purified protein [2]” (2 min) and in the series “purified protein [3]” (2 min) were 11 mM and 3.6 mM, respectively. Moreover, the kcat in the series “purified protein [2]” (2 min) worked out at 0.0045 s⁻¹; in “purified protein [3]” (2 min), 0.003 s⁻¹.

B3: AgCGD1 (Arthrobacter globiformis NBRC 12137) (protein)
chain 1: MTSLGTPIQGVTLYSFTRAFHARQYDLDGLIRKVAAEGFGPGLELIGFSSLRGFPDGIDDAFVGQFRDLVAEVDLIPTSLAVNVDTGIRRDRLMNHDELVEYMSKQIEVAARLGFPIARVQISLTPDAMESLLPVAEKYGVTLALEVHADQHGAHERVLALRDRYEKLDSPLLGFTADWGATVTGFAPSLLEAYRRRGAAEDLLRQVVELWNGFYAEGPPNTQKVHGERFGAFIGLAARSGRPDLGIDFAINGTGLFGPAPLDTWLEIMPWVRHVHGKFFGIDENGEEPSVPVRDLVRQLVENGYSGAISSEYEGWHWNNWQDPFDIIRGEQAVQRSAAANAGSAMITDASEARRILNSHLAQPVRG
chain 2: MIADRIIEHGTLITRDGRAAVEVRIPWYRALPGSCIAGAALTVDGVAAPEDTLRWTMNNRTFSFEELVDETGEWWFPLDSAVLSGDLPVWDDQAEHEVRVDLKLCIPYIITDHGVLHIEEHDTKTMKVAQQ
With B3, the Michaelis constant (Km) in “purified protein [2]” (30 min) stood at 3.4 ± 0.3 mM; in the series “purified protein [3]” (30 min) it was 3.5 ± 0.4 mM; in the series “purified protein [4]”, 3.7 ± 0.5 mM. Moreover, the kcat in “purified protein [2]” (30 min) was 0.0095 ± 0.00033 s⁻¹; in the series “purified protein [3]” (30 min), 0.0767 ± 0.0033 s⁻¹; in the series “purified protein [4]”, 0.00283 ± 0.00017 s⁻¹.

B4: PuCGD (DgpB-C complex) (human intestinal bacterium PUE) (protein)
chain 1: MSNVKLGVTLYSFSTEYCQGKMTLEDCIRTAKELGAAGFEIVATQMIPSYPYVSDKFLGELKSICQYYDMEPVCYGANCDRGLRGDRNLTGDEMVAMAVRDIKNAHKMGCKVVREQWLMGPENFAKLAPFAEHYGVKVGIEVHNPETPITQSTKDYIAAIDKTGSKYLGLIPDFGCFANKPNKMNWDNALADGADKKLLEMARDMKYDNVPYDEAVKRLTAAGAKKVELTTMRDMYTFLTFKKDVSAELQGLKDMIPYCIHMHGKYHYMYENLQEAAIPYDDIMKIVSESDYDGYIVSEYEEYNSGHSIEMLRRHLKMMHNFVD
chain 2: MGLALRLNFVDVVCDDSLKNFWANGKKIGYQFDVRLSYYRGHFLSTIDEIGVKVDGVDVPAENISLCLDGKEYGVAELHDLVNVFWPIIEPATIKVFQPGGLSEEEHDVDFTLYFRSPYMALSETEYQSIDSCGSKRLNVQN
B4: the Km in [5] is given as 0.79 mM. In addition, in [6], the Michaelis-Menten constant (Km) is reported as 12 mM and the kcat is 0.00683 s⁻¹.

B5: MtCGD (Microbacterium trichothecenolyticum) (protein)
chain 1: MTALGTPIQGVTLYSFTRAFHGREYDLEGLIRKTAADGFGPGLEIIGFSSFRGFPAIDDAYAGWFRDLIDEVGLVTTSLAVNADIGIHRDRLLNQDELIEYMTLQIKAAAKLGFPIARVQISIEPDSMEALAPIAEAHGVTLALEVHADQYASHPRILALRDRYEKVGSPFLGFTMDWGATVSGFAPSLIEAYRRRGASEELLGQVVDLWNTYYEQGPPADQADHGQRFGSFIGLAARHGRPDLGIDFGINGTGLFGPARVDDWRTIAPWIKHVHGKFFGIDENGEEPSVPVRDLVKLLVENGYNGAISSEYEGWHWNYWQSPFDIISDEQAVQRSAAEAAGSRMITDLAEARTQLGAWLPNTEGAHA
chain 2: MIPDRIIEQGTLRTDGPRAAVEVRLPWYRALPGSCIAGAELTIDGKTAPAESLRWEMNGAEFTFDELRTNIDEWWFPTDSAVLSGDLDIEADAEHEVTVGLTLYIPYIIISDTETLHIDEKNTKTMKAVAA
As to B5, the kcat in [7] is 0.35 ± 0.033 s⁻¹; in series [8], 0.533 ± 0.083 s⁻¹; in series [9], 0.01 ± 0.0012 s⁻¹. For the same molecule, the results for the Km in series [8] and in [9] were 8.2 ± 1.8 mM and 6.1 ± 1.4 mM, respectively.

B6: MiCGD (CarB-C complex) (Microbacterium sp.) (protein)
chain 1: MTALALPRLGVTLYSFTPYYHAREYSFEDLIRIAGERDLGPGLEIVGYQSIKGFPKLPDGFVKDFRRRVDEAGLELSAMGANADAGIPHDRLLNEDELTEYMAHQLHTAKELGFPIVRVQHSVTPDLMERLLPLAEKLDLTMGMEIHSPHSVHHPKIQALVERYEKLGSPHLGFIPDWGASLTRLPPSALQTYAAADVPRELLDAYDRQWDVFHAEGVITTDAEQGAQFRRMRELNERFGGDDVSVRIGTNAVGLFGHQRPEDWSAIMPWVVHVHGKFYGIDENGEEPSVPHGLLLRQLVDAGYTGYISSEWEGWHWNTTDDPFEMVAWQHRLMRRIFGEIEAEAGVR
chain 2: MFRERIIVQDSLVADESGSAFRIRLPWYRALPLSTIEELSVTVDGTAFDPARLRIAVNDGEWALAEAQLRTDDVWFVLDDATVRLPGLVLDAGAHEVQATLSMRIPYLPVAGKPLSMAETDQKRMDVKELTA
For B6, the Km in “purified protein [10]” came to 0.39 mM.
